Laboratory results taken from patent US20230381333A1 (HANMI PHARM, published 2023).
Bridge positions count the residues as written; N and C are the ends. Square brackets hold non-standard residues; d marks the D form. Ends that are not written are not given here. * marks the point of attachment. Acetyl(2-(4-imidazolyl)) = O=C(Cc1c[nH]cn1)*; Aib = CC(C)(N)C(=O)O

T1: human GIP receptor (human, UniProt P48546 22-466)
T1 sequence (looked up): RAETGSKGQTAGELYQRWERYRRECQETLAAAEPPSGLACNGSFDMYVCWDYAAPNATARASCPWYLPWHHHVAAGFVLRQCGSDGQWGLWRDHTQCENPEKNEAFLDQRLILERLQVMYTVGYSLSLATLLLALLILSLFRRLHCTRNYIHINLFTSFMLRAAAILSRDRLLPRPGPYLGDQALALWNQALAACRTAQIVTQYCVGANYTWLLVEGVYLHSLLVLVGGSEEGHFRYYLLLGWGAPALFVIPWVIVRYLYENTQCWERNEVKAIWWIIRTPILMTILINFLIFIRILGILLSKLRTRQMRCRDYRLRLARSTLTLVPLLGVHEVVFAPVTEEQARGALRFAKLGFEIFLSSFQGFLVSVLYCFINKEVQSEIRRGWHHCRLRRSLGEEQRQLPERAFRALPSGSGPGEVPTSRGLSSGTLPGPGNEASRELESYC

B1: triple agonist of SEQ ID NO: 73 (peptide)
peptide: {Acetyl(2-(4-imidazolyl))}-[Aib]QGTFTSDYSKYLDECRAKEFVQWLLDHHPSSGQPPPS
modifications: bridge 15-19
B2: triple agonist of SEQ ID NO: 74 (peptide)
peptide: {Acetyl(2-(4-imidazolyl))}-[Aib]QGTFTSDYSKCLDEKRAKEFVQWLLDHHPSSGQPPPS
modifications: bridge 15-19
B3: triple agonist of SEQ ID NO: 8 (peptide)
peptide: H[Aib]QGTFTSDVSKYLDGQAAQEFVAWLLKGC
B4: triple agonist of SEQ ID NO: 75 (peptide)
peptide: Y[Aib]QGTFTSDYSKYLDEKAAKEFVQWLLDHHPSSGQPPPSC
modifications: bridge 16-20
B5: triple agonist of SEQ ID NO: 76 (peptide)
peptide: Y[Aib]QGTFTSDYSKYLDEKRAKDFVQWLLDHHPSSGQPPPSC
modifications: bridge 16-20
B6: triple agonist of SEQ ID NO: 77 (peptide)
peptide: Y[Aib]QGTFTSDYSKYLDEKAAKDFVQWLLDHHPSSGQPPPSC
modifications: bridge 16-20
B7: triple agonist of SEQ ID NO: 78 (peptide)
peptide: H[Aib]QGTFTSDYSKYLDEKRQKEFVQWLLDTKC
modifications: bridge 16-20
B8: triple agonist of SEQ ID NO: 79 (peptide)
peptide: H[Aib]EGTFTSDYSIAMDEIHQKDFVNWLLAQKC
modifications: bridge 16-20
B9: triple agonist of SEQ ID NO: 80 (peptide)
peptide: H[Aib]EGTFTSDYSIAMDEIHQKDFVDWLLAEKC
modifications: bridge 16-20
B10: triple agonist of SEQ ID NO: 81 (peptide)
peptide: {Acetyl(2-(4-imidazolyl))}-[Aib]QGTFTSDYSKYLDEKRQKEFVQWLLNTC
modifications: bridge 15-19
B11: triple agonist of SEQ ID NO: 82 (peptide)
peptide: {Acetyl(2-(4-imidazolyl))}-[Aib]QGTFTSDYSKYLDEKRQKEFVQWLLDTC
modifications: bridge 15-19
B12: triple agonist of SEQ ID NO: 83 (peptide)
peptide: {Acetyl(2-(4-imidazolyl))}-[Aib]EGTFTSDYSIAMDEIHQKDFVNWLLAQC
modifications: bridge 15-19
B13: triple agonist of SEQ ID NO: 84 (peptide)
peptide: {Acetyl(2-(4-imidazolyl))}-[Aib]EGTFTSDYSIAMDEIHQKDFVDWLLAEC
modifications: bridge 15-19
B14: triple agonist of SEQ ID NO: 9 (peptide)
peptide: H[Aib]QGTFTSDVSKYLDGQAAQEFVAWLLAGC

biological target: T1, human GIP receptor; assay: cell-based or functional assay

Row | Binder | In vitro activity compared to native-type peptide (%), vs GIP [%]
1 | B1 | 3
2 | B2 | 1
3 | B3 | < 0.1
4 | B4 | 18
5 | B5 | 11.7
6 | B6 | 35.5
7 | B7 | 0.12
8 | B8 | 1.4
9 | B9 | 0.1
10 | B10 | < 0.1
11 | B11 | < 0.1
12 | B12 | 0.4
13 | B13 | < 0.1
14 | B14 | < 0.1

biological target: human GLP-1 receptor (human, UniProt P43220 24-463); assay: cell-based or functional assay

Row | Binder | In vitro activity compared to native-type peptide (%), vs GLP-1 [%]
15 | B1 | 22.6
16 | B2 | 12.9
17 | B3 | 14.2
18 | B4 | 35.1
19 | B5 | 10.3
20 | B6 | 38.7
21 | B7 | 51
22 | B8 | 41.5
23 | B9 | 8.1
24 | B10 | 7.8
25 | B11 | 9.5
26 | B12 | 47.3
27 | B13 | 4.2
28 | B14 | 32.1

biological target: human GCG receptor (human, UniProt P47871 26-477); assay: cell-based or functional assay
Sequence (P47871 26-477): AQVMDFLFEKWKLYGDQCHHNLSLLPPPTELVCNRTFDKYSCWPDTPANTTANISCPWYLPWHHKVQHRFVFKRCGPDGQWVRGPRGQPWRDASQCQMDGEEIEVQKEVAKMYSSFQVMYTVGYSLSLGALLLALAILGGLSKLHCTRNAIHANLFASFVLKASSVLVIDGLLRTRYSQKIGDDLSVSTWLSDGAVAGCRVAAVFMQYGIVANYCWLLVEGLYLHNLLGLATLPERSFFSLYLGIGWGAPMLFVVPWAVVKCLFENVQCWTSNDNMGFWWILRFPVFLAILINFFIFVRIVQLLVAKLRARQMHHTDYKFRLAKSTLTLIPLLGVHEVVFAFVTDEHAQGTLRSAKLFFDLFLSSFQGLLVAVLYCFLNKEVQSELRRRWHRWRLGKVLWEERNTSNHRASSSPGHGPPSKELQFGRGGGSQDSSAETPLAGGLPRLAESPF

Row | Binder | In vitro activity compared to native-type peptide (%), vs Glucagon [%]
29 | B1 | 5.4
30 | B2 | 0.9
31 | B3 | 0.1
32 | B4 | 8.5
33 | B5 | 47.6
34 | B6 | 12.2
35 | B7 | 14
36 | B8 | 4.9
37 | B9 | 0
38 | B10 | 0.3
39 | B11 | 1.1
40 | B12 | 1.3
41 | B13 | < 0.1
42 | B14 | 0.13
